We go through one molecule from publication PMC5676682, “Precision Targeting of Tumor Macrophages with a CD206 Binding Peptide” (Scientific Reports, 2017).

Where no end group is shown, it is not given here. FAM = 5(6)-carboxyfluorescein; Ahx = NCCCCCC(=O)O

The test deals with T1, recombinant mouse macrophage mannose receptor rmMMR/CD206 (mouse, UniProt Q61830 20-1388).
T1 construct: macrophage mannose receptor (CD206/MRC1), mouse, recombinant; take the limits from the vendor's data sheet; also called MRC1; mouse recombinant CD206; source: bought: R&D Systems (catalog number 2535-MM-050)
T1 sequence (looked up): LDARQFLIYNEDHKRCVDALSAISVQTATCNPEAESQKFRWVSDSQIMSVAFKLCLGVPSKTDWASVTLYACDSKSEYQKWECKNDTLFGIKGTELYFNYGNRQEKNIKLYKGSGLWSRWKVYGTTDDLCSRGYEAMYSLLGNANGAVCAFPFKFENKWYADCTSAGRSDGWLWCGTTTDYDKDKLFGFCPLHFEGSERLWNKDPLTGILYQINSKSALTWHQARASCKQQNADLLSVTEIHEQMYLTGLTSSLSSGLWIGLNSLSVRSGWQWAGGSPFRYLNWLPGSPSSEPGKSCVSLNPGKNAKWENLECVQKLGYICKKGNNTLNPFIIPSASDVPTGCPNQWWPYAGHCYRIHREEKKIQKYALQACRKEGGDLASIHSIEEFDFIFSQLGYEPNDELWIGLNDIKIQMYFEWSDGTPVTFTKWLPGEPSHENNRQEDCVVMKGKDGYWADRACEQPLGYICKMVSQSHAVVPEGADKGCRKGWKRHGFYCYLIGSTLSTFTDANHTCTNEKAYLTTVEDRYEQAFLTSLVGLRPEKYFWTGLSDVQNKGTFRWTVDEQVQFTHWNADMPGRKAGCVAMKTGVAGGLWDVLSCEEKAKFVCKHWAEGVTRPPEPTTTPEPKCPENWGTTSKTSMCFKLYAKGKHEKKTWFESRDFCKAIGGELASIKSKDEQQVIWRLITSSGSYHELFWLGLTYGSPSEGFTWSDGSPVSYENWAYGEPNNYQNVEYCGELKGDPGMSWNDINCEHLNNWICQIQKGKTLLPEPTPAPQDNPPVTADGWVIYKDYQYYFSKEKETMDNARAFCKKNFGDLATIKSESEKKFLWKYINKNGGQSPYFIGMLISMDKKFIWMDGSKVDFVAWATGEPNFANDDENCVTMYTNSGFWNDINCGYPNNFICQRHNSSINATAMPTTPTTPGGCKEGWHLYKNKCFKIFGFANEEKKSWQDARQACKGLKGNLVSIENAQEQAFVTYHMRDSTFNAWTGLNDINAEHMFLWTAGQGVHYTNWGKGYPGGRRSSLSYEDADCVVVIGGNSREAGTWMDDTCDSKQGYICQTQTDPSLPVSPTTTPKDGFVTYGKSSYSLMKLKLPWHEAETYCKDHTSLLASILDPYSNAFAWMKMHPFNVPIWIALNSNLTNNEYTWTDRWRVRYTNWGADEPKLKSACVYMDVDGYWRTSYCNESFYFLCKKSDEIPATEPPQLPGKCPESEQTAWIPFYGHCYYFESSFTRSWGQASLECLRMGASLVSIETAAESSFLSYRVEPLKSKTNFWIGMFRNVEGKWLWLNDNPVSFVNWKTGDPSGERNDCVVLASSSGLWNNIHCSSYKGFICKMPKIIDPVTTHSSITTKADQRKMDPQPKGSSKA
The test can be described thus: fluorescence polarisation; fluorescence anisotropy in solution, kinetic mode, 50 nM FAM peptide and 1 µM protein (pseudo first-order), 25 °C, 10 mM Na-HEPES, 150 mM NaCl, 1 mM CaCl2, 0.1% Pluronic F-127, pH 7.4. The following applies: both partners purified. A general note: Fluorescence polarisation rises when a labelled molecule tumbles more slowly, as on binding a larger partner.

B1: FAM-CSPGAK (peptide)
peptide: {FAM-Ahx}-CSPGAK
notes: also called linear CSPGAK motif; source: synthetic peptide; bought: TAG Copenhagen
For the molecule B1, the binding result is given as “binds”.
